Assay results reported in patent publication US20250092158A1.

B1: humanized anti-QSOX1 antibody H3K4 (antibody, human IgG1, kappa, V domains shown)
VH: QVQLVESGGGLVQPGGSLRLSCSVSGFSLTGYGVNWVRQAPGKGLEWLGMIWGDGRTDYADSVKGRFTISRDNSKNTLYLQMSSLRAEDTAVYYCASDYYGSGSFAYWGQGTLVTVSS
VL: DIVMTQSPDSLAVSLGERATINCKASQDVSTAVAWYQQKPGQPPKLLIHSASYRYTGVPDRFSGSGSGTDFTLTISSLQAEDVAVYYCQQHYSIPLTFGQGTRLEIKR
B2: humanized anti-QSOX1 antibody H2bK4 (antibody, human IgG1, kappa, V domains shown)
VH: QITLKESGPTLVKPTQTLTLTCTVSGFSLTGYGVNWIRQPPGKALEWLGMIWGDGRTDYSPSLKSRLTITKDTSKNQVVLTMTNMDPVDTATYYCASDYYGSGSFAYWGRGTLVTVSS
VL: B1 VL
B3: humanized anti-QSOX1 antibody H3newK2 (antibody, human IgG1, kappa, V domains shown)
VH: QVQLVESGGGLVQPGRSLRLSCTVSGFSLTGYGVNWFRQAPGKGLEWLGMIWGDGRTDYTASVKGRFTISRDGSKSIAYLQMNSLKTEDTAVYYCASDYYGSGSFAYWGQGTLVTVSS
VL: DIVMTQTPLSLSVTPGQPASISCKASQDVSTAVAWYLQKPGQPPQLLIHSASYRYTGVPDRFSGSGSGTDFTLKISRVEAEDVGVYYCQQHYSIPLTFGPGTKVDIKR
B4: humanized anti-QSOX1 antibody H3newK4 (antibody, human IgG1, kappa, V domains shown)
VH: B3 VH
VL: B1 VL

molecular target: human Quiescin Sulfhydryl Oxidase 1 (QSOX1) (human) (UniProt O00391); experiment: oxygen electrode assay of QSOX1 (25 nM) on DTT (200 uM), antibody varied, Morrison tight-binding fit
Sequence of UniProt O00391 (O00391 33-546): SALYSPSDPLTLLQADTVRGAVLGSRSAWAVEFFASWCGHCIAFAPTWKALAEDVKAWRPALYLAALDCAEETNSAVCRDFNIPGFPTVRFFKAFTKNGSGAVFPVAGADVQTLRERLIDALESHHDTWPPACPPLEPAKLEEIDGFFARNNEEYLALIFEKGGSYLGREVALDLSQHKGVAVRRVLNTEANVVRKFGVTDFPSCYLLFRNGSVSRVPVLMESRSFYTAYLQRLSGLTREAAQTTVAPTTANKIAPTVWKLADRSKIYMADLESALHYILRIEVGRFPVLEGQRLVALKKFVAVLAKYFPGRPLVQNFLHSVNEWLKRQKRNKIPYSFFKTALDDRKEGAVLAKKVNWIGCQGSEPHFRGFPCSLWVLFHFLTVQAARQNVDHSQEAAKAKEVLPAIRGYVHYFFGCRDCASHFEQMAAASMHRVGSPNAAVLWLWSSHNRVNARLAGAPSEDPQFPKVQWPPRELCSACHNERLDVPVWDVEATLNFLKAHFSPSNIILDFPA

Ki, < 1 nM:
B1
B2
B3
B4
